# Target: SARS-CoV-2 S-protein S1 subunit (SARS-CoV-2)
# Experiment: ELISA
substance,measurement,value
"human ACE2 extracellular domain, wildtype, Fc-tagged dimeric form (from UniProt Q9BYF1-1 18-615) (Fc fusion)",EC50,10.4 nM

# — publication PMC8041869
